Measurements: patent publication US11572572B2, “A138T mutation-containing plant EPSPS mutant, and encoding gene and application thereof” (GEVOTO LLC, priority 2017, dated 2023)

Key:
[1] = test system: double-knockout Escherichia coli (EDCE); assay: Growth of double-knockout E. coli (EDCE) transformed with Triticum aestivum EPSPS genes in glyphosate media (Example 7); format: cell-based
Description: An Escherichia coli strain transformed with the Triticum aestivum EPSPS mutant-encoding gene according to Example 4 was used as an experimental group.
An Escherichia coli strain transformed with a wild-type Triticum aestivum EPSPS-encoding gene (SEQ ID NO: 20, encoding wild-type Triticum aestivum EPSPS set forth in SEQ ID NO: 10 was used as Control Group 1.
The growth statuses of the transformed Escherichia coli strains in media containing different concentrations of glyphosate (0, 1, 20 mM) were detected to verify the glyphosate resistance of the Triticum aestivum EPSPS mutant-encoding gene and the encoded Triticum aestivum EPSPS mutant in Escherichia coli. Here, the Escherichia coli strain used was double-knockout Escherichia coli (Escherichia coli strain DH5a from which an EPSPS gene and a C-P Lyase gene were knocked out, named EDCE, which may be prepared by a method with reference to Chinese Patent Application. 2016103256926).

[2] = test system: transgenic rice seedlings; assay: Glyphosate resistance of EPSPS mutants in transgenic rice sprayed with glyphosate (Example 8); format: in vivo, rice (Nipponbare)
[3] = test system: double-knockout Escherichia coli strain (EDCE); assay: Growth of double-knockout E. coli (EDCE) transformed with Oryza sativa EPSPS genes in glyphosate media (Example 5); format: cell-based; settings: for growth status of transformed Escherichia coli: Example 5, FIG. 1
Description: An Escherichia coli strain transformed with the Oryza sativa EPSPS mutant I-encoding gene according to Example 1 was used as Experimental Group 1 (having only the A155(138)T mutation).
An Escherichia coli strain transformed with the Oryza sativa EPSPS mutant II-encoding gene according to Example 2 was used as Experimental Group 3 (having the G111(96)A mutation and A155(138)T mutation).
An Escherichia coli strain transformed with a wild-type Oryza sativa EPSPS-encoding gene (SEQ ID NO: 14, encoding wild-type Oryza sativa EPSPS set forth in SEQ ID NO: 5) was used as a control group.
The glyphosate resistance of the Oryza sativa EPSPS mutant I-encoding gene and the encoded Oryza sativa EPSPS mutant I in Escherichia coli, and the glyphosate resistance of the Oryza sativa EPSPS mutant II-encoding gene and the encoded Oryza sativa EPSPS mutant II in Escherichia coli were verified by detecting the growth statuses of the transformed Escherichia coli in media containing different concentrations of glyphosate (0 mM, 1 mM, 2 mM, 20 mM) (media obtained by using M9 as a basal medium and then adding certain concentrations of antibiotics Spec (Spectinomycin), Gen (Gentamycin), and Amp (Ampicillin) and different concentrations of glyphosate).
Here, the Escherichia coli strain used was an double-knockout Escherichia coli strain (Escherichia coli strain DH5a from which an EPSPS gene and a C-P Lyase gene were knocked out, named EDCE, which may be prepared by a method with reference to Chinese Patent Application No. 2016103256926).
The detection was carried out by a method well known in the art, which was briefly described below. Gene encoding Oryza sativa EPSPS mutants was synthesized by a chemical synthesis method, wherein enzymatic digestion sites (Pacl and Sbfl) were introduced at both ends of the gene. The gene were enzymatically cleaved and then ligated in the presence of ligase to an expression vector (e.g., pADV5 vector having a structure as shown in FIG. 4) subjected to the same enzymatic digestion treatment, and then were transformed into the double-knockout Escherichia coli strain. After verification, positive clones were picked out and inoculated and grown in media containing glyphosate. The growth statuses were observed.

[4] = 1X dose glyphosate (1,060 g/ha), day 10 after spraying
[5] = 2X dose glyphosate (2,120 g/ha) on survivors of 1X, after another 10 days
[6] = 5X dose glyphosate (5,300 g/ha) on survivors of 2X, after additional 10 days
[7] = 20X dose glyphosate (21,200 g/ha) on survivors of 5X, after further 10 days

B1: T2: Triticum aestivum EPSPS mutant containing G113(96)A, P118(101)S, and A157(138)T (SEQ ID NO: 11), gene SEQ ID NO: 22; experimental group of Example 7 (protein)
chain: MATSVAAPAAPAGAEEVVLQPIREISGAVQLPGSKSLSNRILLLSALSEGTTVVDNLLNSEDVHYMLEALEALGLSVEADKVAKRAVVVGCGGRFPVEKDAKEEVKLFLGNAATAMRSLTAAVVAAGGNATYVLDGVPRMRERPIGDLVVGLQQLGTDVDCFLGTNCPPVRINGKGGLPGGKVKLSGSISSQYLSSLLMAAPLALEDVEIEIIDKLISVPYVEMTLKLMEHFGVTAEHSDSWDRFYIKGGQKYKSPGNAYVEGDASSASYFLAGAAITGGTVTVEGCGTTSLQGDVKFAEVLEMMGAKVTWTDTSVTVTGPPRQPFGRKHLKAVDVNMNKMPDVAMTLAVVALFADGPTAIRDVASWRVKETERMVAIRTELTKLGATVEEGPDYCIITPPEKLNITAIDTYDDHRMAMAFSLAACAEVPVTIRDPGCTRKTFPNYFDVLSTFVKN
modifications: Triticum aestivum EPSPS mutant with mutations G113(96)A, P118(101)S, and A157(138)T
glyphosate concentration of medium in which the E. coli strain was kept in a growing state [1]: up to 20 mM | % ++&+++ (percentage of moderately and highly glyphosate resistant plants in total plants observed) [2, 4]: 75.0% | plant number with resistance + (low glyphosate resistant) [2, 4]: 2 | plant number with resistance ++ (moderately glyphosate resistant) [2, 4]: 4 | plant number with resistance +++ (highly glyphosate resistant) [2, 4]: 20 | % ++&+++ (percentage of moderately and highly glyphosate resistant plants in total plants observed) [2, 5]: 59.4% | plant number with resistance + (low glyphosate resistant) [2, 5]: 3 | plant number with resistance ++ (moderately glyphosate resistant) [2, 5]: 2 | plant number with resistance +++ (highly glyphosate resistant) [2, 5]: 17 | plant number with resistance − (non-glyphosate resistant, withered or dead) [2, 5]: 10 | % ++&+++ (percentage of moderately and highly glyphosate resistant plants in total plants observed) [2, 6]: 50.0% | plant number with resistance + (low glyphosate resistant) [2, 6]: 5 | plant number with resistance ++ (moderately glyphosate resistant) [2, 6]: 14 | plant number with resistance +++ (highly glyphosate resistant) [2, 6]: 2 | plant number with resistance − (non-glyphosate resistant, withered or dead) [2, 6]: 11 | % ++&+++ (percentage of moderately and highly glyphosate resistant plants in total plants observed) [2, 7]: 21.9% | plant number with resistance + (low glyphosate resistant) [2, 7]: 11 | plant number with resistance ++ (moderately glyphosate resistant) [2, 7]: 7 | plant number with resistance +++ (highly glyphosate resistant) [2, 7]: 0 | plant number with resistance − (non-glyphosate resistant, withered or dead) [2, 7]: 14 | level of glyphosate resistance of transformed rice seedlings compared with the mutant lacking the A138T mutation (R4 for R5, T1 for T2) (in words) ([2]; each of 1×, 2×, 5×, and 20× glyphosate doses): higher levels of glyphosate resistance

B2: R3: Oryza sativa EPSPS mutant II with G111(96)A and A155(138)T (SEQ ID NO: 7), encoding gene SEQ ID NO: 17 (protein)
chain: MASNAAAAAAKAEEIVLQPIREISGAVQLPGSKSLSNRILLLSALSEGTTVVDNLLNSEDVHYMLEALKALGLSVEADKVAKRAVVVGCGGKFPVEKDAKEEVQLFLGNAATAMRPLTAAVTAAGGNATYVLDGVPRMRERPIGDLVVGLKQLGTDVDCFLGTECPPVRVKGIGGLPGGKVKLSGSISSQYLSALLMAAPLALGDVEIEIIDKLISIPYVEMTLRLMERFGVKAEHSDSWDRFYIKGGQKYKSPGNAYVEGDASSASYFLAGAAITGGTVTVQGCGTTSLQGDVKFAEVLEMMGAKVTWTDTSVTVTGPPREPYGKKHLKAVDVNMNKMPDVAMTLAVVALFADGPTAIRDVASWRVKETERMVAIRTELTKLGASVEEGPDYCIITPPEKLNITAIDTYDDHRMAMAFSLAACADVPVTIRDPGCTRKTFPNYFDVLSTFVRN
modifications: Oryza sativa EPSPS mutant with mutations G111(96)A and A155(138)T
% ++&+++ (percentage of moderately and highly glyphosate resistant plants in total plants observed) [2, 4]: 70.8% | plant number with resistance + (low glyphosate resistant) [2, 4]: 1 | plant number with resistance ++ (moderately glyphosate resistant) [2, 4]: 9 | plant number with resistance +++ (highly glyphosate resistant) [2, 4]: 25 | % ++&+++ (percentage of moderately and highly glyphosate resistant plants in total plants observed) [2, 5]: 66.7% | plant number with resistance + (low glyphosate resistant) [2, 5]: 0 | plant number with resistance ++ (moderately glyphosate resistant) [2, 5]: 4 | plant number with resistance +++ (highly glyphosate resistant) [2, 5]: 28 | plant number with resistance − (non-glyphosate resistant, withered or dead) [2, 5]: 16 | % ++&+++ (percentage of moderately and highly glyphosate resistant plants in total plants observed) [2, 6]: 50.0% | plant number with resistance + (low glyphosate resistant) [2, 6]: 0 | plant number with resistance ++ (moderately glyphosate resistant) [2, 6]: 13 | plant number with resistance +++ (highly glyphosate resistant) [2, 6]: 11 | plant number with resistance − (non-glyphosate resistant, withered or dead) [2, 6]: 24 | % ++&+++ (percentage of moderately and highly glyphosate resistant plants in total plants observed) [2, 7]: 22.9% | plant number with resistance + (low glyphosate resistant) [2, 7]: 7 | plant number with resistance ++ (moderately glyphosate resistant) [2, 7]: 7 | plant number with resistance +++ (highly glyphosate resistant) [2, 7]: 4 | plant number with resistance − (non-glyphosate resistant, withered or dead) [2, 7]: 30 | glyphosate concentration of medium in which the E. coli strain was kept in a growing state ([3]; Example 5): up to 20 mM | growth status of transformed Escherichia coli ([3]; medium containing 1 mM glyphosate): showed bacterial plaques | growth status of transformed Escherichia coli ([3]; medium containing 2 mM glyphosate): could grow normally | growth status of transformed Escherichia coli ([3]; medium containing 20 mM glyphosate): could grow normally
